Source: patent US20260185137A1, “FRET Active E2-UBL Conjugates and Uses Thereof” (Board of Regents, The University of Texas System, priority 2021, published 2026)

Legend:
[1] = target: T1, UBE2N/V2-Ub conjugate (Homo sapiens, UniProt P61088); test: FRET ubiquitin discharge assay, UBE2N/V2-Ub conjugate; type: biochemical; details: per RING monomer; room temperature
T1 construct: made in house; host or cells: bacteria
Excerpt: To evaluate contributions of distinct RING oligomeric states to TRIM5α autoubiquitination we investigated the catalytic activity of the RING constructs. E3 ubiquitin ligases catalyze the transfer of ubiquitin from the high-energy thioester-linked E2-Ub conjugates onto an amine group of the substrate. One of the challenges in the mechanistic studies of E3 ligases is the difficulty of measuring rates of chemical transformations catalyzed by E3 ligases with sufficient precision. In this study we developed a FRET-based ubiquitin discharge assay that allows continuous, real-time measurement of E3-catalyzed ubiquitin release from E2-Ub conjugates present at nanomolar concentrations in multiple samples in parallel using a fluorescence plate reader (FIG. 3A). […] FRET signals of the E2-Ub conjugates were recorded as a function of time following addition of different RING constructs using AF488 excitation (485/20 nm) and AF594 emission (645/40 nm) bandpass filters. We observed that more than 40% of the total fluorescence signal decayed in a RING-dependent fashion and could, therefore, be attributed to the FRET signal of the conjugate. The outstanding sensitivity, signal-to-noise and throughput of the FRET decay measurements enabled robust and accurate quantification of ubiquitin discharge. […]

[2] = target: T2, TRIM5α RING domain (Macaca mulatta, UniProt Q0PF16); test: 15N HSQC NMR spectroscopy of RING constructs (dimer-monomer exchange); set-up: species or system rhesus monkey; details: NMR time scale, 298K
T2 construct: The R1 constructs encompass residues 2-90 of rhesus monkey TRIM5α; 6His (N, cleaved yes); GB1 solubility tag (N, cleaved yes); made in house; host or cells: bacteria
Procedure: We then collected series of ^15N HSQC spectra by gradually decreasing protein concentration of the R1-WT sample from […] to 10 μM. As the concentration of the sample was lowered one set of peaks became progressively weaker whereas a new set of peaks appeared and became dominant (FIG. 2A and FIG. 2B). […] The findings confirmed that the R1-WT construct exists in a dimer-monomer equilibrium and that the two distinct sets of NMR signals present at high and low concentrations correspond to the dimeric and monomeric states of the protein, respectively.
NMR spectroscopy. All NMR experiments were performed in 50 mM Sodium Phosphate (pH 7.5), 150 mM NaCl, 1 mM TCEP, 10% (v/v) D2O, 0.04% (w/v) NaN3, and the data collected at 298K on a Bruker Avance 700-MHz spectrometer equipped with a cryoprobe. Backbone assignments were carried out using standard TROSY triple resonance NMR experiments (HNCO, HN(CA)CO, HN(CO)CA, HNCA, HNCACB, and HN(CO)CACB). Protein concentrations for each experiment are shown in the corresponding figures or noted in figure legends. The NMR data were processed using NMRPipe and spectra evaluated using NMRFAM-Sparky.

T1 sequence (P61088 whole entry, other chains not shown): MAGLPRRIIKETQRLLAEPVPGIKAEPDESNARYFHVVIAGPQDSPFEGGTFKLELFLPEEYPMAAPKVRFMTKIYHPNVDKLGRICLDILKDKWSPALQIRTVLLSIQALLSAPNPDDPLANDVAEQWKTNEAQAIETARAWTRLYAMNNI
T1 sequence (Q15819 whole entry partner, other chains not shown): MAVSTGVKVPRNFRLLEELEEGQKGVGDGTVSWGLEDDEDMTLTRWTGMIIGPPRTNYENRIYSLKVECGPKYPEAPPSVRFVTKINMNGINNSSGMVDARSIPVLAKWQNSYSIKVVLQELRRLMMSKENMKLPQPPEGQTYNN

B1: R2-WT: tandem RING dimer; R82 of first RING linked to A2 of second through Gly-Ser linker (protein)
chain: ASGILLNVKEEVTCPICLELLTEPLSLHCGHSFCQACITANHKKSMLYKEGERSCPVCRISYQPENIQPNRHVANIVEKLRGSASGILLNVKEEVTCPICLELLTEPLSLHCGHSFCQACITANHKKSMLYKEGERSCPVCRISYQPENIQPNRHVANIVEKLREVKLSPEEGQ
E3 activity (kcat/Km, initial slopes of Michaelis-Menten curves), ubiquitin discharge from UBE2N/V2-Ub conjugate [1]: significantly higher than that of the R1-WT

B2: R1-WT: isolated RING monomer construct, residues 2-89 of the rhesus TRIM5α (protein)
chain: ASGILLNVKEEVTCPICLELLTEPLSLHCGHSFCQACITANHKKSMLYKEGERSCPVCRISYQPENIQPNRHVANIVEKLREVKLSPEE
dimer-monomer exchange rate [2]: < 10 Hz
